# In US20260167959A1, “APTAZYME-BASED REGULATABLE GENE EXPRESSION SYSTEMS” (REJUVENATE BIO INC, priority 2022, published 2026):
# Changes are numbered by the printed parent chain.
# B1: RA396 (nucleic acid)
# DNA: GCGCGTCCTGGATTCGCGGAAACGCGTACATCCAGCTGCGGAATACCAGCATCGTCTTGATGCCCTTGGAAGTCCGACGAGTCCCAAATAGGACGAAACGCGC
# modifications: expressed or natural sequence
# B2: RA402 (nucleic acid)
# DNA: GCGCGTCCTGGATTCGAGAATACCAGCATCGTCTTGATGCCCTTGGAAGTCTCGCGCGGAAACGCGTACATCCAGCTGACGAGTCCCAAATAGGACGAAACGCGC
# modifications: expressed or natural sequence
# B3: RA403 (nucleic acid)
# DNA: GCGCGTCCTCGGAATACCAGCATCGTCTTGATGCCCTTGGAAGTCCGGGATTCGCGGAAACGCGTACATCCAGCTGACGAGTCCCAAATAGGACGAAACGCGC
# modifications: expressed or natural sequence
# B4: RA405 (nucleic acid)
# DNA: GCGCGTCCTGGATTCGCGGAAACGCGTACGAGAATACCAGCATCGTCTTGATGCCCTTGGAAGTCTCGCATCCAGCTGACGAGTCCCAAATAGGACGAAACGCGC
# modifications: expressed or natural sequence
# B5: RA392 (nucleic acid)
# DNA: GCGCGTCCTGGATTCGCGGACGGAATACCAGCATCGTCTTGATGCCCTTGGAAGTCCGAACGCGTACATCCAGCTGACGAGTCCCAAATAGGACGAAACGCGC
# modifications: expressed or natural sequence
# B6: RA390 (nucleic acid)
# DNA: GCGCGTCCGGAATACCAGCATCGTCTTGATGCCCTTGGAAGTCCGGCCTGGATTCGCGGAAACGCGTACATCCAGCTGACGAGTCCCAAATAGGACGAAACGCGC
# modifications: expressed or natural sequence
# B7: RA387 (nucleic acid)
# DNA: GCGCGTCCTGGATTCGCGGAAACGCGCCGGAATACCAGCATCGTCTTGATGCCCTTGGAAGTCCGGTACATCCAGCTGACGAGTCCCAAATAGGACGAAACGCGC
# modifications: expressed or natural sequence
# B8: RA394 (nucleic acid)
# DNA: GCGCGTCCTGGATTCGCAGAATACCAGCATCGTCTTGATGCCCTTGGAAGTCTGGAAACGCGTACATCCAGCTGACGAGTCCCAAATAGGACGAAACGCGC
# modifications: expressed or natural sequence
# B9: RA393 (nucleic acid)
# DNA: GCGCGTCCTGGATTCGCGGAAACGCGTACATCCAGCTGACGAGTCCCAAATAGGCGGAATACCAGCATCGTCTTGATGCCCTTGGAAGTCCGACGAAACGCGC
# modifications: expressed or natural sequence
# B10: RA404 (nucleic acid)
# DNA: GCGCGTCCTGGATTCGCGGAAGGAATACCAGCATCGTCTTGATGCCCTTGGAAGTCCACGCGTACATCCAGCTGACGAGTCCCAAATAGGACGAAACGCGC
# modifications: expressed or natural sequence
# B11: RA401 (nucleic acid)
# DNA: GCGCGTCCTGGATTCGCGGAAACGCGCGGAATACCAGCATCGTCTTGATGCCCTTGGAAGTCCGTACATCCAGCTGACGAGTCCCAAATAGGACGAAACGCGC
# modifications: expressed or natural sequence
# B12: RA389 (nucleic acid)
# DNA: GCGCGTCCTGGATTCGCGGAAACGCGTACCGGAATACCAGCATCGTCTTGATGCCCTTGGAAGTCCGATCCAGCTGACGAGTCCCAAATAGGACGAAACGCGC
# modifications: expressed or natural sequence
# B13: RA395 (nucleic acid)
# DNA: GCGCGTCCTGGATTCGCGGAAACGCGTACATCCAGCTGACGAGTCCCAAATAGGAGAATACCAGCATCGTCTTGATGCCCTTGGAAGTCTCGACGAAACGCGC
# modifications: expressed or natural sequence
# B14: RA399 (nucleic acid)
# DNA: GCGCGTCCTGGATTCGCGGAAACGCGTACATCCACGAGAATACCAGCATCGTCTTGATGCCCTTGGAAGTCTCGGCTGACGAGTCCCAAATAGGACGAAACGCGC
# modifications: expressed or natural sequence
# B15: RA391 (nucleic acid)
# DNA: GCGCGTCCTGGATTCGCGGAAACGCGTACATCCAGCTGACGAGTCCCAGAGAATACCAGCATCGTCTTGATGCCCTTGGAAGTCTCAATAGGACGAAACGCGC
# modifications: expressed or natural sequence
# B16: RA388 (nucleic acid)
# DNA: GCGCGTCCTGAGTGATACCAGCATCGTCTTGATGCCCTTGGCAGCACTGATTCGCGGAAACGCGTACATCCAGCTGACGAGTCCCAAATAGGACGAAACGCGC
# modifications: expressed or natural sequence
# B17: RA398 (nucleic acid)
# DNA: GCGCGTCCTGGATTCGCGGACGAGAATACCAGCATCGTCTTGATGCCCTTGGAAGTCTCGAACGCGTACATCCAGCTGACGAGTCCCAAATAGGACGAAACGCGC
# modifications: expressed or natural sequence
# B18: RA400 (nucleic acid)
# DNA: GCGCGTCCTGGATTCGCGGAACCGGAATACCAGCATCGTCTTGATGCCCTTGGAAGTCCGGACGCGTACATCCAGCTGACGAGTCCCAAATAGGACGAAACGCGC
# modifications: expressed or natural sequence
# B19: RA397 (nucleic acid)
# DNA: GCGCGTCCTGGATTCGCGGAAACGCGTACATCCAGCTGACGAGTCCCAAATAGGACGAAACGCGCCGGAATACCAGCATCGTCTTGATGCCCTTGGAAGTCCG
# modifications: expressed or natural sequence
# B20: RA038 (nucleic acid)
# DNA: GCGCGTCCTGGATTCGCGGAAACGCGTACATCAGAATACCAGCATCGTCTTGATGCCCTTGGAAGTCTCAGCTGACGAGTCCCAAATAGGACGAAACGCGC
# modifications: expressed or natural sequence
# B21: RA039 (nucleic acid)
# DNA: B20 DNA with A33G, T68C
# modifications: expressed or natural sequence
# Tested on: Renilla luciferase RNA
# Experiment: Barcoded aptazyme variant library screen: un-cleaved Renilla luciferase RNA by barcode read counts, HEK293-T cells
# Format: cell-based
# Details: un-cleaved Renilla luciferase RNA by barcode read counts; with 1 mM theophylline (ON) over without theophylline (OFF); HEK293-T cells; triplicate
# Outline: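 Barcode sequencing of cDNA versus DNA, normalized per aptazyme, gave the un-cleaved Renilla luciferase RNA fraction and fold-change with versus without theophylline (triplicates). Library: T3H48 ribozyme with one of seven theophylline aptamer variants inserted at each position, placed in the Renilla 3′ UTR of a dual-luciferase vector.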
row,Molecule,Fold change in RNA expression between the ON state and the OFF state
1,B1,0.7
2,B2,0.7
3,B3,0.7
4,B4,0.7
5,B5,0.7
6,B6,0.7
7,B7,0.8
8,B8,0.7
9,B9,0.7
10,B10,0.7
11,B11,0.7
12,B12,0.8
13,B13,0.7
14,B14,0.7
15,B15,0.7
16,B16,0.8
17,B17,0.7
18,B18,0.7
19,B19,0.7

# Same assay, conditions: un-cleaved Renilla luciferase RNA, HEK293-T cells cultured with 1 mM theophylline (ON) over without theophylline (OFF); barcode read counts, triplicate
row,Molecule,Fold change in RNA expression between the ON state and the OFF state
1,B20,2.2 fold
2,B21,2.2 fold
